In test [1] the target is CD44 (HCELL), native glycoprotein from human HSPCs (KG1a, CD34^pos fraction) (human) (UniProt P16070). The experiment in a line: SPR; CD44 captured from KG1a lysate on Hermes-3-mAb, E-Ig injected, 150 mM NaCl; apparent rate constant; 1st experiment.
Test [2] concerns the target T1, CD34, native glycoprotein from human HSPCs (KG1a, CD34^pos-BM, CD34^pos-UCB, CD34^pos-AML) (human, UniProt P28906 32-385, native glycosylation (about 120-130 kDa form); sialylated O-glycans and tyrosine sulfation are shown to matter for selectin binding).
T1 construct: mature; also called E-selL CD34
T1 sequence (looked up): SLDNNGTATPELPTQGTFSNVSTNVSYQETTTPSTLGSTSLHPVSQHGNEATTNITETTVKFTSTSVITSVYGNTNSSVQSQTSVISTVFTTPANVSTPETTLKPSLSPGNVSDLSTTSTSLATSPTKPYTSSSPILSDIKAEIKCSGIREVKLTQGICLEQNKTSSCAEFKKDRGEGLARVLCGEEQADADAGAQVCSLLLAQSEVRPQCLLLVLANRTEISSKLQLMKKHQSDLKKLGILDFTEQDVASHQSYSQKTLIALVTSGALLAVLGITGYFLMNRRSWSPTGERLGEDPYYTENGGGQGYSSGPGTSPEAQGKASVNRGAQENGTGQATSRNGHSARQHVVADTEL
The test can be described thus: SPR; CD34 captured from KG1a lysate on 563-mAb, E-Ig injected, 150 mM NaCl; apparent rate constant; 3rd experiment. For orientation: In SPR one partner is held on a chip, and binding of the other changes the refractive index at the surface.

In test [3] the target is T1, CD34, native glycoprotein from human …. The experiment in a line: SPR; CD34 captured from KG1a lysate on 563-mAb, E-Ig injected, 150 mM NaCl; apparent rate constant; mean ± SEM.
For test [4], the target named is CD44 (HCELL), native glycoprotein from human HSPCs (KG1a, CD34^pos fraction) (human) (UniProt P16070). The experiment in a line: SPR; CD44 captured from KG1a lysate on Hermes-3-mAb, E-Ig injected, 150 mM NaCl; apparent rate constant; mean ± SEM.
The target of test [5] is T2, PSGL-1, native glycoprotein from human HSPCs (KG1a, CD34^pos-BM) (human, UniProt Q14242 42-412, native glycosylation and tyrosine sulfation).
T2 construct: mature; also called P-selectin glycoprotein ligand-1
T2 sequence (looked up): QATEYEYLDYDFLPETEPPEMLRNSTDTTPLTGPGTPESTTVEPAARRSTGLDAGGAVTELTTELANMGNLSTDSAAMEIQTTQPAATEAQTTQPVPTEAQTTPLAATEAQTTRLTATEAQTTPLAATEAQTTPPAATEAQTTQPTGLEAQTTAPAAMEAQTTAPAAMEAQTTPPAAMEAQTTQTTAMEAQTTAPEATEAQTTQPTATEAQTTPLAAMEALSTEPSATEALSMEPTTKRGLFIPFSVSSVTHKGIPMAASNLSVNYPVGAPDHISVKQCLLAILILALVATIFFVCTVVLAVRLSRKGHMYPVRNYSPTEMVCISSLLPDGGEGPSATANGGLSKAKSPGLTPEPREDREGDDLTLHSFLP
The test can be described thus: SPR; PSGL-1 captured from KG1a lysate on KPL-1-mAb, E-Ig injected (3.9-2000 nM), 150 mM NaCl; steady-state model; mean ± SEM.

Test [6] addresses T1, CD34, native glycoprotein from human …. The test can be described thus: SPR, apparent rate constant: includes loss of CD34 or CD34⋅E-Ig from 4H11-mAb and of E-Ig from CD34⋅4H11-mAb; KG1a lysate.
The target in test [7] is CD44 (HCELL), native glycoprotein from human HSPCs (KG1a, CD34^pos fraction) (human) (UniProt P16070). The test can be described thus: SPR; CD44 captured from KG1a lysate on Hermes-3-mAb, E-Ig injected, 150 mM NaCl; apparent rate constant; 3rd experiment.
In test [8] the target is T3, CD43, native glycoprotein from KG1a cells (human, UniProt P16150 20-400, native glycosylation).
T3 construct: mature
T3 sequence (looked up): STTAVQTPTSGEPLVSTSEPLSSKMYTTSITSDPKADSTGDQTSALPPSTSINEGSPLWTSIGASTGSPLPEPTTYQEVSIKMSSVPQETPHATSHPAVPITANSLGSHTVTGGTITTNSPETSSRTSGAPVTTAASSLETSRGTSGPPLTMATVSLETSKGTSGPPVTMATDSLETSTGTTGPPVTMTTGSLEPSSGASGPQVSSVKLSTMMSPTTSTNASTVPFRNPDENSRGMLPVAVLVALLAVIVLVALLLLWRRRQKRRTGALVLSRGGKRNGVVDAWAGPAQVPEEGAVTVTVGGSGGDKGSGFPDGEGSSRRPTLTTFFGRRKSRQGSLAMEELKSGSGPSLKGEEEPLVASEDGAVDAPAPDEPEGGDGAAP
The experiment in a line: SPR; CD43 captured from KG1a lysate on polyclonal CD43 Ab, E-Ig injected, 150 mM NaCl; apparent rate constant; 2nd experiment.

Test [9] addresses T3, CD43, native glycoprotein from KG1a …. The test can be described thus: SPR; CD43 captured from KG1a lysate on polyclonal CD43 Ab, E-Ig injected (3.9-2000 nM), 150 mM NaCl; steady-state model; 1st experiment.
Test [10] addresses T2, PSGL-1, native glycoprotein from human …. The test can be described thus: SPR; PSGL-1 captured from KG1a lysate on KPL-1-mAb, E-Ig injected (3.9-2000 nM), 150 mM NaCl; steady-state model; 2nd experiment.
Test [11] concerns the target CD44 (HCELL), native glycoprotein from human HSPCs (KG1a, CD34^pos fraction) (human) (UniProt P16070). The experiment in a line: SPR; CD44 captured from KG1a lysate on Hermes-3-mAb, E-Ig injected (3.9-2000 nM), 150 mM NaCl; steady-state model; 1st experiment.

This passage reports koff, kon and Kd results from patent US20200199533A1 (KING ABDULLAH UNIVERSITY OF SCIENCE AND TECHNOLOGY, published 2020).

Usually koff stands for a measure of how fast the partners let go of each other. What is called kon is the second-order rate constant of association. One may read the Kd as the constant that tells how readily two partners part at equilibrium.

Sequence of CD44 (HCELL), native glycoprotein from human HSPCs (KG1a, CD34^pos fraction) (human) (P16070 21-742): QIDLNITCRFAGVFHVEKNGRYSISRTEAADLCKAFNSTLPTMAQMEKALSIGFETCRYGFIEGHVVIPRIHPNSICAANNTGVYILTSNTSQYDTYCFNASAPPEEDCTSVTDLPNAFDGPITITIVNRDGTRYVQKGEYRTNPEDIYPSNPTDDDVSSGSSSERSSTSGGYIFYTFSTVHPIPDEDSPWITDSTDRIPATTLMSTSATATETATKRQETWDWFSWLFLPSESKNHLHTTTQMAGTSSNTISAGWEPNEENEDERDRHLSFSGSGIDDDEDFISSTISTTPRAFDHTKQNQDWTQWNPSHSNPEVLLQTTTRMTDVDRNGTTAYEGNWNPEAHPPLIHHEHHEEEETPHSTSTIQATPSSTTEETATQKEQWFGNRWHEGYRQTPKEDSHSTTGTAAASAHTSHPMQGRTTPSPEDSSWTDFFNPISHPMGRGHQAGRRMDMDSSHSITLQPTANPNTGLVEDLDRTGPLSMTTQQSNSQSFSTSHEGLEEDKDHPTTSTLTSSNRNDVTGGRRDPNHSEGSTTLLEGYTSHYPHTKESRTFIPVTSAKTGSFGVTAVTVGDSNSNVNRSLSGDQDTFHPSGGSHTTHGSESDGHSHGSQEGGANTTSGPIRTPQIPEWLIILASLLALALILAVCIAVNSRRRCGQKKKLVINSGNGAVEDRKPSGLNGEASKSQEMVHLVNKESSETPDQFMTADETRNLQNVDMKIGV

B1: recombinant E-selectin human immunoglobulin chimeric protein (Fc fusion)
chain: WSYNTSTEAMTYDEASAYCQQRYTHLVAIQNKEEIEYLNSILSYSPSYYWIGIRKVNNVWVWVGTQKPLTEEAKNWAPGEPNNRQKDEDCVEIYIKREKDVGMWNDERCSKKKLALCYTAACTNTSCSGHGECVETINNYTCKCDPGFSGLKCEQIVNCTALESPEHGSLVCSHPLGNFSYNSSCSISCDRGYLPSSMETMQCMSSGEWSAPIPACNVVECDAVTNPANGFVECFQNPGSFPWNTTCTFDCEEGFELMGAQSLQCTSSGNWDNEKPTCKAVTCRAVRQPQNGSVRCSHSPAGEFTFKSSCNFTCEEGFMLQGPAQVECTTQGQWTQQIPVCEAFQCTALSNPERGYMNCLPSASGSFRYGSSCEFSCEQGFVLKGSKRLQCGPTGEWDNEKPTCEAVRCDAVHQPPKGLVRCAHSPIGEFTYKSSCAFSCEEGFELHGSTQLECTSQGQWTEEVPSCQVVKCSSLAVPGKINMSCSGEPVFGTVCKFACPEGWTLNGSAARTCGATGHWSGLLPTCEAPTESNIP
As to B1, the off-rate constant (koff) in [1] came out at 0.00011 s⁻¹; in [2], 0.000331 s⁻¹; in test [3], 0.00026 s⁻¹; in [4], 0.00019 s⁻¹; in test [6], 0.00033 s⁻¹; in [7], 0.000273 s⁻¹. The koff in [8] stood at 0.00042 s⁻¹. Further, the kon in [1] was determined as 641 M⁻¹ s⁻¹; in test [3] it was 1230 M⁻¹ s⁻¹; in test [4] it was 903 M⁻¹ s⁻¹; in test [7], 1280 M⁻¹ s⁻¹; in test [8], 1060 M⁻¹ s⁻¹. The Kd in [5] turned out to be 259 nM; in [9] it was 509 nM; in test [10], 207 nM; in test [11] it was 234 nM.
